Numbering of substitutions follows the chain as printed.
T1: VEGF-D (recombinant human; source not given) (human, UniProt O43915 89-205, limits assumed)
T1 construct: also used here as target of IC50 values averaged over Source 1 and Source 2; also called vascular endothelial growth factor-D
T1 sequence: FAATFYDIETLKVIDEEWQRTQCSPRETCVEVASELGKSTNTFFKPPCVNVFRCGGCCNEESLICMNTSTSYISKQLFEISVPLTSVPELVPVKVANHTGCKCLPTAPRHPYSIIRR

T2: Source 1 VEGF-D, mature dimeric recombinant human VEGF-D (CSIRO) (human, UniProt O43915 89-205)
T2 construct: Whole entry named; also called Source 1 VEGF-D dimer; VEGF-D dimer
T2 sequence: T1 sequence

T3: Source 2 VEGF-D, purified recombinant human VEGF-D monomer (R&D Systems, Catalog Number 622-VD/CF) (human, UniProt O43915 93-201)
T3 sequence: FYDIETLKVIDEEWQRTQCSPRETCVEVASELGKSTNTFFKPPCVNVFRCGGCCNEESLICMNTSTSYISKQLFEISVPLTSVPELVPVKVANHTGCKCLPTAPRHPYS

B1: scFv clone A63 (scFv)
scFv: QVQLVQSGAKVKQPGASVKASCKASGYTFTGYNMYWVRQAPGQGLEWMGYIDPYNGDTTYNQKFKGRVTMTTDTSTSTAYMELRSLRSDDTAVYYCARTSYYGGMDYWGRGTLVTVASGGGASGGGGSGGGGSDIVMTQTPLSSPVTLGQPASISCRSSQSLVHSNGNTYLHWLQQRPGQPPRLLIYKVSNRFSGVPDRFSGSGAGTDFTLKISRVEAEDVGVYYCSQSTHVPRTFGQGTKLEIKR
B2: scFv clone DI26 (scFv)
scFv: B1 scFv with N55S
notes: also called DI126
B3: scFv clone AW61 (scFv)
scFv: B1 scFv with K10E, A20V, V68A, E82K
B4: scFv clone CJ37 (scFv)
scFv: B1 scFv with K10E, A20V, E82K, Q238R
B5: scFv clone F61 (scFv)
scFv: B1 scFv with K10E, A20V, E82K
B6: scFv clone AR74 (scFv)
scFv: B1 scFv with K10E, A20V, D73G, E82K, T99A
B7: humanized IgG antibody derived from clone HX28 (antibody, V domains shown)
VH: QVQLVQSGAKVKQPGASVKASCKASGYTFTGYNMYWVRQAPGQGLEWMGYIDPYSGDTTYNQKFKGRVTMTTDTSTSTAYMELRSLRSDDTAVYYCARTSYYGGMDYWGRGTLVTVAS
VL: DIVMTQTPLSSPVTLGQPASISCRSSQSLVHSNGNTYLHWLQQRPGQPPRLLIYKVSNRFSGVPGRFSGSGAGTDFTLKISRVEAEDVGVYYCSQSTHVPRTFGQGTKLEIKR
notes: IgG
B8: scFv clone HU75 (scFv)
scFv: B1 scFv with K10E, A20V, E82K, S144G, Q238R
B9: scFv clone G11 (scFv)
scFv: B1 scFv with K10E, A20V, D198G
B10: scFv clone DD76 (scFv)
scFv: B1 scFv with S75N
B11: scFv clone HH41 (scFv)
scFv: B1 scFv with K10E, A20V, E82K, S165G
B12: scFv clone DE03 (scFv)
scFv: B1 scFv with S25G
B13: scFv clone DD17 (scFv)
scFv: B1 scFv with S17G
B14: scFv clone G75 (scFv)
scFv: B1 scFv with K10E, A20V, A40V, T112A
B15: scFv clone DC64 (scFv)
scFv: B1 scFv with V18M
B16: scFv clone H44 (scFv)
scFv: B1 scFv with K10E, A20V, E46G, G131R, V221M
notes: G131R lies in the scFv linker
B17: scFv clone HX28 (scFv)
scFv: B1 scFv with N55S, D198G
B18: scFv clone H71 (scFv)
scFv: B1 scFv with K10E, K19R, A20V, T69A, S158T
B19: scFv clone Z23 (scFv)
scFv: B1 scFv with K10E, A20V, E46G, G131R
notes: G131R lies in the scFv linker
B20: scFv clone I71 (scFv)
scFv: B1 scFv with K10E, K19R, A20V
B21: scFv clone I84 (scFv)
scFv: B1 scFv with K10E, A20V, A40V
B22: scFv clone V37 (scFv)
scFv: B1 scFv with K10E, A20V, A40V
B23: scFv clone HW78 (scFv)
scFv: B1 scFv with K10E, A20V, S25R, S77G, E82K
B24: scFv clone P88 (scFv)
scFv: B1 scFv with K10E, A20V, T138I
B25: scFv clone W25 (scFv)
scFv: B1 scFv with K10E, A20V, E46G
B26: scFv clone W36 (scFv)
scFv: B1 scFv with K10E, A20V, E46G
B27: scFv clone K89 (scFv)
scFv: B1 scFv with K10E, A20V, S25R
B28: scFv clone G38 (scFv)
scFv: B1 scFv with K10E, A20V, A40V, V114A
B29: scFv clone Z49 (scFv)
scFv: B1 scFv with K10E, A20V, D89G
B30: scFv clone DD25 (scFv)
scFv: B1 scFv with M48V
B31: scFv clone G37 (scFv)
scFv: B1 scFv with Q3R, K10E, A20V, S100G
B32: scFv clone Q30 (scFv)
scFv: B1 scFv with K10E, A20V, T112A
B33: scFv clone HH69 (scFv)
scFv: B1 scFv with N55S, S144G, Q238R

molecular target: T1, VEGF-D (recombinant human; source not …); experiment: SPR (BIAcore), KD against that of scFv 1A
Method: (§1) scFv variants were fully characterized using a BIAcore™ biosensor. All isolated scFv samples were purified as monomer peaks by anti-FLAG affinity chromatography followed by gel filtration chromatography. BIAcore™ analysis was performed by directly immobilizing VEGF-D on a CM5 surface using amine coupling, with the scFv run as the analyte. Analysis of binding was carried out using the BIAevaluation kinetic analysis software. All repeats were separate protein expressions and were performed at 25° C.
(§2) Clones F61, A63, AR7, AW61, CJ37, DI126 and DA18 were produced in large-scale expression cultures and purified by anti-FLAG affinity chromatography and gel filtration. The binding kinetics against VEGF-D were then measured using a BIAcore™ biosensor as described previously.

For B1, which “Fold-improvement with respect to clone 1A” value is on record?
The value was 2.7 fold.

For B2, which “Fold-improvement with respect to clone 1A” value is on record?
Its value is 4.2 fold.

How did the “Fold-improvement with respect to clone 1A” value turn out when B3 was run?
Its value is 3.1 fold.

Which “Fold-improvement with respect to clone 1A” value does the source give for B4 here?
The value was 3.7 fold.

B5 was tested. Which “Fold-improvement with respect to clone 1A” value did it give?
Its value is 4 fold.

B6 was tested. Which “Fold-improvement with respect to clone 1A” value did it give?
Its value is 6.2 fold.

molecular target: T2, Source 1 VEGF-D, mature dimeric …; experiment: SPR Protocol A: IgG captured by anti-human Fc, VEGF-D dimer as analyte
Method: (§3) Protocol A: The first assay format, Protocol A, used an assay system where IgGs were captured on a biosensor chip surface using an anti-human IgG (Fc) antibody and the Source 1 VEGF-D dimer run over the chip as the analyte in solution. This ensured that all IgG molecules were presented to the antigen in an active orientation.
(§4) The SPR protocol was slightly modified to compensate for the dimeric nature of the VEGF-D. Ig-1A or IgG variants were analyzed using an anti-human capture kit as described for Anti-human IgG (Fc) capture above, except that 1000 RU of the IgG or IgG variant was captured on the anti-human chip surface. […] The kinetics generated using this approach are accurate within the experimental parameters set. This standard assay protocol is best suited to studying 1:1 interactions and thus, may not be ideal for analyzing binding between the IgG variants and the VEGF-D dimer. In light of this, Protocol B was also used.

For B7, which Kd is on record?
The Kd was 0.383 nM.

And the koff?
The koff was 0.00014 s⁻¹.

And the kon?
The kon was 360000 M⁻¹ s⁻¹.

molecular target: T1, VEGF-D (recombinant human; source not …); experiment: SPR (BIAcore) off-rate ranking of scFv clones
Method: Screening based on scFv binding properties involved surface plasmon resonance (SPR) measurements with a BIAcore™ biosensor. scFv variants were expressed in 200 μL E. coli cultures and the supernatants used to generate crude off-rate only kinetics, which were assessed “relative” to 1A, or other variants.

How did the koff turn out when B1 was run?
The koff was 0.00327 s⁻¹.

B8 was tested. Which koff did it give?
The koff was 0.00181 s⁻¹.

How did the koff turn out when B2 was run?
The koff was 0.00361 s⁻¹.

With B9 as the binder, how does the koff read?
Its koff is 0.00464 s⁻¹.

For B10, which koff is on record?
The koff was 0.00637 s⁻¹.

How did the koff turn out when B11 was run?
Its koff is 0.00104 s⁻¹.

With B12 as the binder, how does the koff read?
The koff was 0.00798 s⁻¹.

Which koff does the source give for B13 here?
The koff was 0.0091 s⁻¹.

With B14 as the binder, how does the koff read?
The koff was 0.0072 s⁻¹.

For B15, which koff is on record?
The koff was 0.00738 s⁻¹.

B3 was tested. Which koff did it give?
The koff was 0.00222 s⁻¹.

How did the koff turn out when B16 was run?
Its koff is 0.00657 s⁻¹.

B17 was tested. Which koff did it give?
Its koff is 0.00643 s⁻¹.

Which koff does the source give for B18 here?
Its koff is 0.00653 s⁻¹.

Which koff does the source give for B19 here?
The koff was 0.00556 s⁻¹.

Which koff does the source give for B20 here?
The koff was 0.00661 s⁻¹.

B21 was tested. Which koff did it give?
Its koff is 0.00738 s⁻¹.

B22 was tested. Which koff did it give?
Its koff is 0.00794 s⁻¹.

With B4 as the binder, how does the koff read?
The koff was 0.00732 s⁻¹.

For B23, which koff is on record?
The koff was 0.00189 s⁻¹.

B24 was tested. Which koff did it give?
The koff was 0.00785 s⁻¹.

B25 was tested. Which koff did it give?
The koff was 0.0046 s⁻¹.

Which koff does the source give for B26 here?
The koff was 0.00611 s⁻¹.

How did the koff turn out when B27 was run?
Its koff is 0.00403 s⁻¹.

With B28 as the binder, how does the koff read?
Its koff is 0.00772 s⁻¹.

For B29, which koff is on record?
The koff was 0.00497 s⁻¹.

Which koff does the source give for B5 here?
The koff was 0.00335 s⁻¹.

For B30, which koff is on record?
Its koff is 0.00373 s⁻¹.

How did the koff turn out when B31 was run?
The koff was 0.00586 s⁻¹.

For B6, which koff is on record?
The koff was 0.00167 s⁻¹.

B32 was tested. Which koff did it give?
Its koff is 0.0072 s⁻¹.

B33 was tested. Which koff did it give?
The koff was 0.00212 s⁻¹.

molecular target: T2, Source 1 VEGF-D, mature dimeric …; experiment: SPR Protocol A, KD against that of Ig-1A
Method: as §3, §4

With B7 as the binder, how does the “Fold-improvement with respect to Ig-1A” value read?
Its value is 1.8 fold.

molecular target: T1, VEGF-D (recombinant human; source not …); experiment: SPR (BIAcore), VEGF-D amine-coupled on CM5, purified scFv as analyte
Method: as §1, §2

With B1 as the binder, how does the Kd read?
The Kd was 4.83 nM.

And the koff?
Its koff is 0.0072 s⁻¹.

What about the kon of the same binder?
The kon was 1.49e+06 M⁻¹ s⁻¹.

Which Kd does the source give for B2 here?
Its Kd is 3.12 nM.

What about the koff of the same binder?
The koff was 0.0093 s⁻¹.

And the kon?
Its kon is 2.98e+06 M⁻¹ s⁻¹.

How did the Kd turn out when B3 was run?
Its Kd is 4.23 nM.

What about the koff of the same binder?
Its koff is 0.00828 s⁻¹.

What about the kon of the same binder?
Its kon is 1.96e+06 M⁻¹ s⁻¹.

B4 was tested. Which Kd did it give?
The Kd was 3.55 nM.

And the koff?
The koff was 0.00995 s⁻¹.

What about the kon of the same binder?
The kon was 2.81e+06 M⁻¹ s⁻¹.

With B5 as the binder, how does the Kd read?
The Kd was 3.31 nM.

What about the koff of the same binder?
Its koff is 0.00899 s⁻¹.

And the kon?
The kon was 2.72e+06 M⁻¹ s⁻¹.

For B6, which Kd is on record?
The Kd was 2.12 nM.

And the koff?
The koff was 0.00379 s⁻¹.

And the kon?
The kon was 1.79e+06 M⁻¹ s⁻¹.

molecular target: T3, Source 2 VEGF-D, purified recombinant …; experiment: cell-based or functional assay

With B7 as the binder, how does the “rank in the VEGFR-3-Ba/F3 bioassay” value read?
Its value is 1 rank.

molecular target: T2, Source 1 VEGF-D, mature dimeric …; experiment: cell-based or functional assay

For B7, which “rank in the VEGFR-3-Ba/F3 bioassay” value is on record?
The value was 1 rank.
